# Experimental data taken from patent publication US20190100594A1.
# Where two headings read alike, the source gives them in different places.
# What was measured:
# [1] = target: GITR expressed on CHO cells (Homo sapiens (Human)) (UniProt Q9Y5U5); test: flow cytometry on GITR-expressing CHO cells, MFI-FL4
# [2] = target: GITR expressed on CHO cells (Homo sapiens (Human)) (UniProt Q9Y5U5); test: as above; remark: listed apart in the source
# Sequence of GITR expressed on CHO cells (Homo sapiens (Human)) (Q9Y5U5 26-241 limits assumed): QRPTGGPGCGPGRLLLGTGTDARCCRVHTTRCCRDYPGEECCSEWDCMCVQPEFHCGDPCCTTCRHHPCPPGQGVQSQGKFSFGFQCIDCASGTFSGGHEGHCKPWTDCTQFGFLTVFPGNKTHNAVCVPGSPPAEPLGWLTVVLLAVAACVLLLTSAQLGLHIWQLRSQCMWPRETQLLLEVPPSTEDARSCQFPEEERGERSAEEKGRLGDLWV
substance,measurement,setting,value
TRX-518 (antibody),EC50 (read off the curve),[1],1 nM
same,EC50 (read off the curve),[2],3 nM
